According to patent US6867003:

Target: insulin receptor partially purified from CHO-IR cells (Chinese Hamster Ovary cells expressing high levels of insulin receptors of human origin) (human) (UniProt P06213)
Test: cell-based or functional assay

Sequence of GST-rGrb14 (O88900 whole entry): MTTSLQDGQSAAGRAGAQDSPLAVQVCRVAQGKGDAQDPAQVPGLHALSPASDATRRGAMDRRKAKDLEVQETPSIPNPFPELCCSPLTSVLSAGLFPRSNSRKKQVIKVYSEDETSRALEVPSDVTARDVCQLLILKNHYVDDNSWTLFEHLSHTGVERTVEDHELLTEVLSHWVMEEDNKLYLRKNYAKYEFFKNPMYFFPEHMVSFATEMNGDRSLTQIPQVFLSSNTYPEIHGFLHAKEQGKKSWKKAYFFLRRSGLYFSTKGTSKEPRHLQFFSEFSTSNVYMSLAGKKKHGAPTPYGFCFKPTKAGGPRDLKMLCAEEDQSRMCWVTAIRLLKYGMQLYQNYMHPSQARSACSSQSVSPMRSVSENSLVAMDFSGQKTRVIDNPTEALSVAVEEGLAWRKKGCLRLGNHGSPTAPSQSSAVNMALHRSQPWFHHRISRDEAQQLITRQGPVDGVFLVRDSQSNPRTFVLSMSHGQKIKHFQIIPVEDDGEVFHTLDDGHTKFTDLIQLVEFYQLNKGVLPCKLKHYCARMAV
Sequence of GST-PIR+SH2 of rGrb14 (O88900 353-538): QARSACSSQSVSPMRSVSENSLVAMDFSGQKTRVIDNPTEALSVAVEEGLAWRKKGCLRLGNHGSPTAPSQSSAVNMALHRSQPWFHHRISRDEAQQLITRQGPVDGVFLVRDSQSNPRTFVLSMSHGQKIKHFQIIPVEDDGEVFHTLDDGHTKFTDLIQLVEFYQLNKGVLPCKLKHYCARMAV

## GST-rGrb7 (from UniProt Q9QZC5 1-535)
  maximum inhibition of the tyrosine kinase activity of the insulin receptors: 40%

## GST-rGrb14 (from UniProt O88900 1-538)
  amount giving 50% inhibition of the tyrosine kinase activity of the receptors (32P incorporation into poly Glu-Tyr): 0.04 µg

## GST-PIR of rGrb14 (from UniProt O88900 353-436)
  amount giving total inhibition of the tyrosine kinase activity of the insulin receptors: 0.3 µg

## GST-PIR+SH2 of rGrb14 (from UniProt O88900 353-538)
  amount giving the maximum inhibitory effect on the tyrosine kinase activity of the insulin receptors: 0.03 µg
